Earlier results in patent US5814460A, “Method for generating and screening useful peptides” (Diatide, Inc., priority 1995, dated 1998).
Where two headings read alike, the source gives them in different places.

Key:
[1] = biological target: T1, streptavidin (Streptomyces avidinii, UniProt P22629); conditions: read-out: Kd of streptavidin complex
T1 construct: purchased Sigma Chemical Company

[2] = biological target: fibrinogen receptor (GpIIb IIIa) (Homo sapiens, UniProt P05106+P08514)
[3] = biological target: Angiotensin II Receptor; conditions: Table 6
[4] = biological target: fibrin polymerization (Homo sapiens, UniProt P02679); conditions: literature statement
Chain of fibrin polymerization (P02671 20-629 partner limits assumed): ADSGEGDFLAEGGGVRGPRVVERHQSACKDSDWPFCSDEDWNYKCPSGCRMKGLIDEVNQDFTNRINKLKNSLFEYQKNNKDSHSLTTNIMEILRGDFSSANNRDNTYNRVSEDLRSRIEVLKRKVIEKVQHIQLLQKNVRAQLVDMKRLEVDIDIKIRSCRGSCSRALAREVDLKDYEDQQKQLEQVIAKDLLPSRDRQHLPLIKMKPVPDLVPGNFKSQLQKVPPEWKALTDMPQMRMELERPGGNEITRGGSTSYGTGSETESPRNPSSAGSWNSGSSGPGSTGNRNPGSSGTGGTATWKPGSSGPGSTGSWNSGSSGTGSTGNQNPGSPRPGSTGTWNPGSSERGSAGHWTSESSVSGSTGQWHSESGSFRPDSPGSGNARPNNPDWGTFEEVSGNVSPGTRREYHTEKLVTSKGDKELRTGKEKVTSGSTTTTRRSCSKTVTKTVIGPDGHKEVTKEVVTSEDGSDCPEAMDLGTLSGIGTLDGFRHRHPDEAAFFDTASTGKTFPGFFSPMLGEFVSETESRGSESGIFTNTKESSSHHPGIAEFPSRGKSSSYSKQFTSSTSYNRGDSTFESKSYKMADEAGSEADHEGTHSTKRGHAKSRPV
Chain of fibrin polymerization (P02675 31-491 partner): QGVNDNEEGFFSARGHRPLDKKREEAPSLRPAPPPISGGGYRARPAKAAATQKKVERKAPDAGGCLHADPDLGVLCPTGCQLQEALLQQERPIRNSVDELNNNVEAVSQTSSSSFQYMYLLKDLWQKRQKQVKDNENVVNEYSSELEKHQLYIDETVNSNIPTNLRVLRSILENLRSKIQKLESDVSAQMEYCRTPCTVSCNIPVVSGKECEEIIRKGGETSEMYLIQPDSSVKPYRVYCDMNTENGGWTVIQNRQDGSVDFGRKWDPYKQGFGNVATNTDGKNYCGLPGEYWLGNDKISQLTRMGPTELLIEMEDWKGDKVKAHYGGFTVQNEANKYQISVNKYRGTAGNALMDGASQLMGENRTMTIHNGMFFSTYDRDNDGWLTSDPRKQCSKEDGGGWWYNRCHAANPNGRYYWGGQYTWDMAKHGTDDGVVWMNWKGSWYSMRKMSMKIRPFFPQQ
Chain of fibrin polymerization (P02679 27-433 limits assumed): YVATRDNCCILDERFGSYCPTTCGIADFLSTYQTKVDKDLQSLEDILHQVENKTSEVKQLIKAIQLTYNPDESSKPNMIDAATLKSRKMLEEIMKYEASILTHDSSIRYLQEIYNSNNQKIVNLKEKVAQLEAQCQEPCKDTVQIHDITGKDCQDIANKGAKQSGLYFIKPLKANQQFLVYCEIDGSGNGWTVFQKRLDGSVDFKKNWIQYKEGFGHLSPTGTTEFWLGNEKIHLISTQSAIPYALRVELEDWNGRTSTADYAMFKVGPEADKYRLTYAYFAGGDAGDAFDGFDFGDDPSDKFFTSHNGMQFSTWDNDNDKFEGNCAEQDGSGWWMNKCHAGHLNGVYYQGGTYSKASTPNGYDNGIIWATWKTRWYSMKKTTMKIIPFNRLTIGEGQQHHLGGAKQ

[5] = biological target: human fibrinogen (Homo sapiens, UniProt P02679); conditions: read-out: affinities for human fibrinogen
Chain of human fibrinogen (P02671 20-629 partner limits assumed): as the sequence (P02671 20-629 partner limits assumed) above
Chain of human fibrinogen (P02675 31-491 partner): as the sequence (P02675 31-491 partner) above
Chain of human fibrinogen (P02679 27-433 limits assumed): as the sequence (P02679 27-433 limits assumed) above

[6] = biological target: Porcine PLA2 (Sus scrofa, UniProt P00592); conditions: Table 6
Chain of Porcine PLA2 (P00592 23-146): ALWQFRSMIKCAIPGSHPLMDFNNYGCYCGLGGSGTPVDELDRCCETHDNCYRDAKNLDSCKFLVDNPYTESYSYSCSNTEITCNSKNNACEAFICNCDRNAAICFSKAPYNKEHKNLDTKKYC

[7] = biological target: Pepsin (hum.) (Homo sapiens, UniProt P0DJD7); conditions: Table 6
Chain of Pepsin (hum.) (P0DJD7 63-388): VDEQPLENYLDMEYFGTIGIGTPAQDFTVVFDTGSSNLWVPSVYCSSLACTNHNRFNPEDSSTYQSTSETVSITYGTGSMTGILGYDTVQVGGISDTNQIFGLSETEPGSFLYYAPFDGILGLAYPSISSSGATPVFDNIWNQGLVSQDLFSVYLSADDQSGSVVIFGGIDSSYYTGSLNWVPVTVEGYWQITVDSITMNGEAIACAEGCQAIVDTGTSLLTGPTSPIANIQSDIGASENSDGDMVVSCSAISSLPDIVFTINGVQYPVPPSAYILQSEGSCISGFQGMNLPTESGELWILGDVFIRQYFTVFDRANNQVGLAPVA

[8] = biological target: Urokinase Receptor (hum.) (Homo sapiens, UniProt Q03405); conditions: Table 6
Chain of Urokinase Receptor (hum.) (Q03405 23-335): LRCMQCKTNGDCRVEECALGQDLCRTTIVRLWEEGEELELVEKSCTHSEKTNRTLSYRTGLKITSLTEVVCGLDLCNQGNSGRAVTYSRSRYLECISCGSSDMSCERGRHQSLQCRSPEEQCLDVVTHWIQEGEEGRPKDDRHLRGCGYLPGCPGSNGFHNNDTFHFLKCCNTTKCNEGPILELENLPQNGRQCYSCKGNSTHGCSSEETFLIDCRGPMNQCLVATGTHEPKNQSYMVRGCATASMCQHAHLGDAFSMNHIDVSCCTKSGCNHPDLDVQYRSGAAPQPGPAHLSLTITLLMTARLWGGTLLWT

[9] = biological target: CD4 (Homo sapiens, UniProt P01730); conditions: Table 6
[10] = biological target: T2, Gastricsin (hum.) (Homo sapiens, UniProt P20142); conditions: Table 6
T2 sequence (P20142 60-388): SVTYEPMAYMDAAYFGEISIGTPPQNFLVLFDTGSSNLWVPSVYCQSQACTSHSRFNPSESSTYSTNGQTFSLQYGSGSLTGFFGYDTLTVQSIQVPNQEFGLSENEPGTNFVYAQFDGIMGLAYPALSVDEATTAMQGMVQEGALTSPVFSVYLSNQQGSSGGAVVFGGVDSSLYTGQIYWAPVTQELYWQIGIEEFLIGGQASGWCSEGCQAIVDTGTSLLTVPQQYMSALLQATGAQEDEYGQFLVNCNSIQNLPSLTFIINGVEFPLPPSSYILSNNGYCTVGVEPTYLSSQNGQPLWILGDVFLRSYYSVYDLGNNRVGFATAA

[11] = biological target: Calmodulin (Homo sapiens, UniProt P0DP23); conditions: Table 6
[12] = biological target: Fibronectin (rat) (human); conditions: Table 6
Chain of Fibronectin (rat) (human) (P04937 1540-1633 limits assumed): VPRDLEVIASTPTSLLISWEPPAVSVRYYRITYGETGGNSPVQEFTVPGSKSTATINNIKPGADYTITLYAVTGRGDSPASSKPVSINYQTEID

[13] = Table 6, target GpIIb IIa, read-out: Kd

T1 sequence (P22629 25-183): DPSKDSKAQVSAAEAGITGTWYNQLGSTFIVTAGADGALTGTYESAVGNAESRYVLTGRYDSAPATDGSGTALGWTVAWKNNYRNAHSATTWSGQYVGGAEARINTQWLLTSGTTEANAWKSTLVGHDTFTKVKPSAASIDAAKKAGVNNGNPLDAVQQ

N=C1N[C@H]2[C@H](CS[C@H]2CCCCC(=O)O)N1 [imminobiotin]
Kd [1]: ~10 nM

Arg-Gly-Asp-Trp (RGDW)
Kd [2, 13]: 1000 nM
Kd ([2]; example of a lead peptide, read-out: affinity (Kd) for fibrinogen receptor): 5000 nM

EGVYVHPV
Kd [3]: 100 nM

GPRP
inhibition of fibrin polymerization [4]: inhibit fibrin polymerization

GPRV: synthetic peptide beginning with GPR that binds fibrinogen
inhibition of fibrin polymerization [4]: inhibit fibrin polymerization
Kd [5]: 100000 nM

GRGDSP: lead peptide (Fb) for GpIIb IIIa
Kd [2, 13]: 1000 nM

Gly-Pro-Arg [GPR]
inhibition of fibrin polymerization [4]: inhibit fibrin polymerization
Kd [5]: 50000 nM

MLFILIKRSRHF
Kd [6]: 10000 nM

RGDY: RGD containing peptide binding GpIIb IIIa
Kd [2, 13]: 1000 nM

RIFLKRMPSIR
Kd [7]: 1000 nM

TCVXNKYFSNIHW: lead peptide (urokinase) for urokinase receptor
Kd [8]: 1000 nM

TNYT: lead peptide for CD4
Kd [9]: 1000 nM

TTFKRIFLKRMPS
Kd [10]: 1000 nM

VAITVLVK
Kd [11]: 1000 nM

WTVPTA: lead peptide, antisense of GAVSTA RGD sequence, for fibronectin
Kd [12]: 1000 nM
